Non-standard residues stand in square brackets, D forms with d. No end group written: not given here. Tyr(3-I) = N[C@@H](Cc1ccc(O)c(I)c1)C(=O)O
T1: HIS-TEV-tagged CBP80(Δ2–23) (human, UniProt Q09161 24-790, Δ2–23)
T1 sequence: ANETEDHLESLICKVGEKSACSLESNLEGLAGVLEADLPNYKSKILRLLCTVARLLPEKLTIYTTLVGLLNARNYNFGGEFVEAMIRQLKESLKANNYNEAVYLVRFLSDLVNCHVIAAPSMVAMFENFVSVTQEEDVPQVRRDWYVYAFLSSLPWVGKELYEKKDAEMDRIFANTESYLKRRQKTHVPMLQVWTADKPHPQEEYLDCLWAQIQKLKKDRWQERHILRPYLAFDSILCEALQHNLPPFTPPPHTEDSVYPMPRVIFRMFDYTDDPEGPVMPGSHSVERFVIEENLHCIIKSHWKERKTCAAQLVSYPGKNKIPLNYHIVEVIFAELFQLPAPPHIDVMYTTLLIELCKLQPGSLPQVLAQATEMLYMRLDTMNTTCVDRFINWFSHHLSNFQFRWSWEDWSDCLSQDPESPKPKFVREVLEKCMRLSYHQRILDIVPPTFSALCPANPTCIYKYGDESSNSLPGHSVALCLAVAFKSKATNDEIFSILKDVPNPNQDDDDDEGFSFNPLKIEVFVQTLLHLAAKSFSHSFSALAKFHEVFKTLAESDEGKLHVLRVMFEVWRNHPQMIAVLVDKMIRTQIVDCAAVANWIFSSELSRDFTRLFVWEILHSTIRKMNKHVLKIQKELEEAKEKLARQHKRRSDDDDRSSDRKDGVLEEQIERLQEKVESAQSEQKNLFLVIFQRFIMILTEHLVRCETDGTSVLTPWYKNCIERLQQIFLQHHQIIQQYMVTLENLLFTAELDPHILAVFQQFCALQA

T2: cap-binding complex (CBC): preformed complex of CBP80–CBP20 (human, UniProt Q09161;P52298, Δ2–23)
T2 sequence 1: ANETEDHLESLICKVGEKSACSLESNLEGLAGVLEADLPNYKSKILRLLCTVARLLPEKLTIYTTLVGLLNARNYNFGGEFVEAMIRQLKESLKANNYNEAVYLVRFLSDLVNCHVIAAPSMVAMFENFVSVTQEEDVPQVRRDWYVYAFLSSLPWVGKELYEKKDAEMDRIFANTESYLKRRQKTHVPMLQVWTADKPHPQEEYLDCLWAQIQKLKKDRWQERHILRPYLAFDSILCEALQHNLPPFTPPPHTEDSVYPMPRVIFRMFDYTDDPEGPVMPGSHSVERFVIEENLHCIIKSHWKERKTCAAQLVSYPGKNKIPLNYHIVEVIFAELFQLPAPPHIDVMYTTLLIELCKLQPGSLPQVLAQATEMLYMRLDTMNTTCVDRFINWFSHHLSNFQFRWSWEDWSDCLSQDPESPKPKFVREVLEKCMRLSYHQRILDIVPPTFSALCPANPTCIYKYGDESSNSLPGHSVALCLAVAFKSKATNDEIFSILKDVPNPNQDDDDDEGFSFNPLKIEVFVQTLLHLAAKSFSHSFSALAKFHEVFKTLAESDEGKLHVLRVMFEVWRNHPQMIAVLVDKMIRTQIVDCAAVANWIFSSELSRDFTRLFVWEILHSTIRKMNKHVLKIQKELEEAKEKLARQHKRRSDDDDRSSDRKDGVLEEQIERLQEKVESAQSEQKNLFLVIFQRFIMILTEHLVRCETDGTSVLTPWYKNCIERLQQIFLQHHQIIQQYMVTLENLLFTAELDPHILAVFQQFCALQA
T2 sequence 2: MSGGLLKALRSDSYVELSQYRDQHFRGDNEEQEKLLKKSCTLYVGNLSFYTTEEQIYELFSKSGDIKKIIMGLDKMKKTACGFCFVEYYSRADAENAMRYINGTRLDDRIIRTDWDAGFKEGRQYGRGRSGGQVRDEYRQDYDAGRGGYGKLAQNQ


Experiments:
[1] = molecular target: T1, HIS-TEV-tagged CBP80(Δ2–23); experiment: pull-down
[2] = molecular target: T1, HIS-TEV-tagged CBP80(Δ2–23); experiment: crystal structure
[3] = molecular target: T2, cap-binding complex (CBC): preformed …; experiment: crystal structure
[4] = molecular target: T2, cap-binding complex (CBC): preformed …; experiment: fluorescence polarisation

Row | Binder | binding result [2] | binding result [4] | further results
1 | PASGKSKYEAMDFDSLLKEAQQSLH (domain or fragment) [PGC-1β amino acids 999–1023] |  |  | binding result [1]: binds
2 | CBP20 (natural protein) MSGGLLKALRSDSYVELSQYRDQHFRGDNEEQEKLLKKSCTLYVGNLSFYTTEEQIYELFSKSGDIKKIIMGLDKMKKTACGFCFVEYYSRADAENAMRYINGTRLDDRIIRTDWDAGFKEGRQYGRGRSGGQVRDEYRQDYDAGRGGYGKLAQNQ | binds |  | 
3 | MDFDSLLKEAQQS [PGC-1β peptide, amino acids 1009–1021] |  | binds | 

The next lines start with results.

Row | binding result [2] | binding result [4] | Binder | further results
4 | binds |  | Ac-SEEALPASGKSK[Tyr(3-I)]EAMDFDSLLKEAQQSLH (not fully specified) [synthetic PGC-1β peptide spanning amino acids 994–1023] | binding result [3]: binds
5 |  | binds | MDFDSLLKEGQQS [PGC-1β-10G] | 
